According to patent US10738340B2, “Methods and materials for enzymatic synthesis of mogroside compounds” (EVOLVA SA, priority 2011, dated 2020):

Experiment: In vitro UGT screening: reactions of mogrol with a panel of 230 UGT enzymes, products analyzed with LC-MS
Type: biochemical
Details: for position of mogrol glycosylated by the UGT: aglycone mogrol as substrate, see FIG. 2; for product formed from mogrol substrate in the in vitro UGT reaction (LC-MS): partially purified UGT enzyme or crude enzyme extract
Description: In vitro reactions of mogrol with a panel of 230 UGT enzymes were performed and the products were analyzed with LC-MS. The in vitro UGT reaction mixtures included 4× Tris buffer, mogrol (250 μM), UDP-glucose (750 μM) and 1% alkaline phosphatase. Five μl of each partially purified UGT enzyme or crude enzyme extract was added to the reaction, and the reaction volume brought to 50 μl with water. The reactions were incubated overnight at 30° C. and performed in sterilized 96 well plates. After the incubation, 25 μL of DMSO were added into each reaction and the reaction plates were centrifuged for 5 min. Forty μL samples were taken from each well and filtered, and were used for LC-MS analysis.

[1] = mogrol 250 μM, UDP-glucose 750 μM, overnight at 30° C.

B1: UGT 73C3: UDP dependent glucosyltransferase from Arabidopsis thaliana, glycosyltransferase family I, SEQ ID NO:1 (protein, listed as Arabidopsis thaliana)
chain: MATEKTHQFHPSLHFVLFPFMAQGHMIPMIDIARLLAQRGVTITIVTTPHNAARFKNVLNRAIESGLAINILHVKFPYQEFGLPEGKENIDSLDSTELMVPFFKAVNLLEDPVMKLMEEMKPRPSCLISDWCLPYTSIIAKNFNIPKIVFHGMGCFNLLCMHVLRRNLEILENVKSDEEYFLVPSFPDRVEFTKLQLPVKANASGDWKEIMDEMVKAEYTSYGVIVNTFQELEPPYVKDYKEAMDGKVWSIGPVSLCNKAGADKAERGSKAAIDQDECLQWLDSKEEGSVLYVCLGSICNLPLSQLKELGLGLEESRRSFIWVIRGSEKYKELFEWMLESGFEERIKERGLLIKGWAPQVLILSHPSVGGFLTHCGWNSTLEGITSGIPLITWPLFGDQFCNQKLVVQVLKAGVSAGVEEVMKWGEEDKIGVLVDKEGVKKAVEELMGDSDDAKERRRRVKELGELAHKAVEKGGSSHSNITLLLQDIMQLAQFKN
- position of mogrol glycosylated by the UGT: glycosylate at the C24-OH position
- product formed from mogrol substrate in the in vitro UGT reaction (LC-MS) [1]: convert all the mogrol substrate to mogroside Ib

B2: UGT 73C6: UDP dependent glucosyltransferase from Arabidopsis thaliana, glycosyltransferase family I, SEQ ID NO:3 (protein, listed as Arabidopsis thaliana)
chain: MAFEKNNEPFPLHFVLFPFMAQGHMIPMVDIARLLAQRGVLITIVTTPHNAARFKNVLNRAIESGLPINLVQVKFPYQEAGLQEGQENMDLLTTMEQITSFFKAVNLLKEPVQNLIEEMSPRPSCLISDMCLSYTSEIAKKFKIPKILFHGMGCFCLLCVNVLRKNREILDNLKSDKEYFIVPYFPDRVEFTRPQVPVETYVPAGWKEILEDMVEADKTSYGVIVNSFQELEPAYAKDFKEARSGKAWTIGPVSLCNKVGVDKAERGNKSDIDQDECLEWLDSKEPGSVLYVCLGSICNLPLSQLLELGLGLEESQRPFIWVIRGWEKYKELVEWFSESGFEDRIQDRGLLIKGWSPQMLILSHPSVGGFLTHCGWNSTLEGITAGLPMLTWPLFADQFCNEKLVVQILKVGVSAEVKEVMKWGEEEKIGVLVDKEGVKKAVEELMGESDDAKERRRRAKELGESAHKAVEEGGSSHSNITFLLQDIMQLAQSNN
- position of mogrol glycosylated by the UGT: glycosylate at the C24-OH position
- product formed from mogrol substrate in the in vitro UGT reaction (LC-MS) [1]: convert all the mogrol substrate to mogroside Ib

B3: UGT 85C2: UDP dependent glucosyltransferase from Stevia rebaudiana, glycosyltransferase family I, SEQ ID NO:5 (protein, listed as Stevia rebaudiana)
chain: MDAMATTEKKPHVIFIPFPAQSHIKAMLKLAQLLHHKGLQITFVNTDFIHNQFLESSGPHCLDGAPGFRFETIPDGVSHSPEASIPIRESLLRSIETNFLDRFIDLVTKLPDPPTCIISDGFLSVFTIDAAKKLGIPVMMYWTLAACGFMGFYHIHSLIEKGFAPLKDASYLTNGYLDTVIDWVPGMEGIRLKDFPLDWSTDLNDKVLMFTTEAPQRSHKVSHHIFHTFDELEPSIIKTLSLRYNHIYTIGPLQLLLDQIPEEKKQTGITSLHGYSLVKEEPECFQWLQSKEPNSVVYVNFGSTTVMSLEDMTEFGWGLANSNHYFLWIIRSNLVIGENAVLPPELEEHIKKRGFIASWCSQEKVLKHPSVGGFLTHCGWGSTIESLSAGVPMICWPYSWDQLTNCRYICKEWEVGLEMGTKVKRDEVKRLVQELMGEGGHKMRNKAKDWKEKARIAIAPNGSSSLNIDKMVKEITVLARN
- position of mogrol glycosylated by the UGT: glycosylate at the C24-OH position
- product formed from mogrol substrate in the in vitro UGT reaction (LC-MS) [1]: convert all the mogrol substrate to mogroside Ib

B4: UGT 73E1: UDP dependent glucosyltransferase from Stevia rebaudiana, glycosyltransferase family I, SEQ ID NO:4 (protein, listed as Stevia rebaudiana)
chain: MSPKMVAPPTNLHFVLFPLMAQGHLVPMVDIARILAQRGATVTIITTPYHANRVRPVISRAIATNLKIQLLELQLRSTEAGLPEGCESFDQLPSFEYWKNISTAIDLLQQPAEDLLRELSPPPDCIISDFLFPWTTDVARRLNIPRLVFNGPGCFYLLCIHVAITSNILGENEPVSSNTERVVLPGLPDRIEVTKLQIVGSSRPANVDEMGSWLRAVEAEKASFGIVVNTFEELEPEYVEEYKTVKDKKMWCIGPVSLCNKTGPDLAERGNKAAITEHNCLKWLDERKLGSVLYVCLGSLARISAAQAIELGLGLESINRPFIWCVRNETDELKTWFLDGFEERVRDRGLIVHGWAPQVLILSHPTIGGFLTHCGWNSTIESITAGVPMITWPFFADQFLNEAFIVEVLKIGVRIGVERACLFGEEDKVGVLVKKEDVKKAVECLMDEDEDGDQRRKRVIELAKMAKIAMAEGGSSYENVSSLIRDVTETVRAPH
- position of mogrol glycosylated by the UGT: glycosylate at the C24-OH position
- completeness of the mogrol glycosylation reaction [1]: the reaction was not complete
- product formed from mogrol substrate in the in vitro UGT reaction (LC-MS) [1]: mogroside Ib was found as the major product, together with a new glycosylated mogrol

B5: UGT 73C5: UDP dependent glucosyltransferase from Arabidopsis thaliana, glycosyltransferase family I, SEQ ID NO:2 (protein, listed as Arabidopsis thaliana)
chain: MVSETTKSSPLHFVLFPFMAQGHMIPMVDIARLLAQRGVIITIVTTPHNAARFKNVLNRAIESGLPINLVQVKFPYLEAGLQEGQENIDSLDTMERMIPFFKAVNFLEEPVQKLIEEMNPRPSCLISDFCLPYTSKIAKKFNIPKILFHGMGCFCLLCMHVLRKNREILDNLKSDKELFTVPDFPDRVEFTRTQVPVETYVPAGDWKDIFDGMVEANETSYGVIVNSFQELEPAYAKDYKEVRSGKAWTIGPVSLCNKVGADKAERGNKSDIDQDECLKWLDSKKHGSVLYVCLGSICNLPLSQLKELGLGLEESQRPFIWVIRGWEKYKELVEWFSESGFEDRIQDRGLLIKGWSPQMLILSHPSVGGFLTHCGWNSTLEGITAGLPLLTWPLFADQFCNEKLVVEVLKAGVRSGVEQPMKWGEEEKIGVLVDKEGVKKAVEELMGESDDAKERRRRAKELGDSAHKAVEEGGSSHSNISFLLQDIMELAEPNN
- position of mogrol glycosylated by the UGT: glycosylates at both the C3-OH (UGT #1 in FIG. 2) and C24-OH position
- product formed from mogrol substrate in the in vitro UGT reaction (LC-MS) [1]: makes both mogroside Ia and Ib
